Reference: the supplement of paper PMC9233669
This sample holds only a part of the variants without activity.

Columns and labels:
[1] = tested on: biotinyl-Phe-oxazolone; test: self-aminoacylation, catalytic enhancement (BFO) (fold over background); higher = more active; k-Seq, kA / k0A0; sequences stand for … in GGGAAUGGAUCCACAUCUACGAAUUC…UUCACUGCAGACUUGACGAAGCUG
Outline: (§1)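 Catalytic enhancement equals the median kA over the uncatalyzed rate, the latter read from the low-activity peak of a bimodal Gaussian fit. Values of kA came from fitting each sequence's fraction reacted to a pseudo-first-order model, with 1000 bootstraps. Reacted RNA was captured with streptavidin and quantified by triplicate qPCR and Illumina sequencing after 90 minutes at room temperature with 2–1250 μM biotinyl-aminoacyl-oxazolone and 0.43 μM mutagenized RNA pools bearing a 21-nt variable region.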

[2] = tested on: biotinyl-Ile-oxazolone; test: self-aminoacylation, catalytic enhancement (BIO) (fold over background); higher = more active; k-Seq, kA / k0A0; sequences stand for … in GGGAAUGGAUCCACAUCUACGAAUUC…UUCACUGCAGACUUGACGAAGCUG
Outline: as §1

[3] = tested on: biotinyl-Met-oxazolone; test: self-aminoacylation, catalytic enhancement (BMO) (fold over background); higher = more active; k-Seq, kA / k0A0; sequences stand for … in GGGAAUGGAUCCACAUCUACGAAUUC…UUCACUGCAGACUUGACGAAGCUG
Outline: as §1

[4] = tested on: biotinyl-Val-oxazolone; test: self-aminoacylation, catalytic enhancement (BVO) (fold over background); higher = more active; k-Seq, kA / k0A0; sequences stand for … in GGGAAUGGAUCCACAUCUACGAAUUC…UUCACUGCAGACUUGACGAAGCUG
Outline: as §1

[5] = tested on: biotinyl-Leu-oxazolone; test: self-aminoacylation, catalytic enhancement (BLO) (fold over background); higher = more active; k-Seq, kA / k0A0; sequences stand for … in GGGAAUGGAUCCACAUCUACGAAUUC…UUCACUGCAGACUUGACGAAGCUG
Outline: as §1

[6] = tested on: biotinyl-Trp-oxazolone; test: self-aminoacylation, catalytic enhancement (BWO) (fold over background); higher = more active; k-Seq, kA / k0A0; sequences stand for … in GGGAAUGGAUCCACAUCUACGAAUUC…UUCACUGCAGACUUGACGAAGCUG
Outline: as §1

Sequence | self-aminoacylation [1] | self-aminoacylation [2] | self-aminoacylation [3] | self-aminoacylation [4] | self-aminoacylation [5] | self-aminoacylation [6]
AAGUUUGCUGAUUGUCGCAAG [Fam3.1 aminoacylation ribozyme variant] | 1.02 | 0.948 | 1.09 | 1.02 | 1.11 | 1.37
CUGCUUCAUACAAUCGGUCUG [Fam1A.1 aminoacylation ribozyme variant] | 0.639 | 0.671 | 0.69 | 0.602 | 0.628 | 0.32
AUUACCCUGGCCAUCGAGUGA [Fam2.1 aminoacylation ribozyme variant] | 11.7 | 2.05 | 3.27 | 2.24 | 3.27 | 3.94
AUUCAGCUAGAUCAUCGGGUG [Fam2.2 aminoacylation ribozyme variant] | 26.3 | 2.71 | 4.04 | 2.85 | 4.61 | 3.9
GUACUCCAAACAAUCGGUCUG [Fam1A.1 aminoacylation ribozyme variant] | 2.05 | 1.06 | 0.967 | 1.04 | 0.944 | 1.84
AUUUACCUUGGUCAUCGGGUG [Fam2.2 aminoacylation ribozyme variant] | 45.7 | 4.48 | 7.16 | 4.81 | 8.83 | 6.6
AUUCACUUAGGUCAUCGAGUG [Fam2.2 aminoacylation ribozyme variant] | 4.43 | 1.68 | 2.42 | 1.64 | 2.75 | 1.99
CCACACCUCAAACAAUCGGUC [Fam1B.1 aminoacylation ribozyme variant] | 7.05 | 1.24 | 1.04 | 1.13 | 1.29 | 4.47
AAGUUUGAUAAUCGUCGCAAG [Fam3.1 aminoacylation ribozyme variant] | 1.99 | 1.54 | 1.25 | 1.13 | 1.26 | 1.43
AGGUUUGCUAAUAGUCGCCAG [Fam3.1 aminoacylation ribozyme variant] | 1.14 | 1.39 | 1.51 | 1.35 | 1.52 | 2.22
AAUCACCUAGGUCAUCGGGUA [Fam2.2 aminoacylation ribozyme variant] | 52.7 | 7.76 | 12 | 7.24 | 14.7 | 10.5
AUUACCCUGGUCAUGGAGUUA [Fam2.1 aminoacylation ribozyme variant] | 0.664 | 1.04 | 1.23 | 1.13 | 0.899 | 0.695
CCACCCUUCAACCAAUCGGUC [Fam1B.1 aminoacylation ribozyme variant] | 46 | 1.19 | 1.35 | 1.47 | 1.44 | 26.2
AUUACCCUGGUCCUCGAGAGA [Fam2.1 aminoacylation ribozyme variant] | 0.376 | 0.884 | 0.757 | 1.28 | 1.32 | 0.889
AAGUUGGCUAAUAGUCGCAAC [Fam3.1 aminoacylation ribozyme variant] | 2.17 | 1.75 | 1.31 | 1.4 | 1.42 | 1.93
AGUCGCCUAGGUCAUCGGGUG [Fam2.2 aminoacylation ribozyme variant] | 49 | 5.29 | 6.31 | 5.42 | 7.99 | 9.01
CCACACUUCAAGCAACCCGUC [Fam1B.1 aminoacylation ribozyme variant] | 0.819 | 1.14 | 0.779 | 1.17 | 0.763 | 0.843
CUACUUCAUACAAUGGGUCUG [Fam1A.1 aminoacylation ribozyme variant] | 0.65 | 0.805 | 0.755 | 0.757 | 0.803 | 0.764
AAGUUUGCUGAUAGUCGCCAG [Fam3.1 aminoacylation ribozyme variant] | 4.26 | 1.38 | 1.41 | 1.53 | 2.22 | 1.44
CCACACUUCAAGCAAUCGGGU [Fam1B.1 aminoacylation ribozyme variant] | 0.915 | 1.51 | 1.41 | 1.8 | 1.87 | 1.06
GUUCCCCUAGGUCAUCGGGUG [Fam2.2 aminoacylation ribozyme variant] | 94.8 | 7.72 | 13.3 | 8.06 | 14.2 | 12.1
AUUAGCCUGGUCAUCGUGUGA [Fam2.1 aminoacylation ribozyme variant] | 21.6 | 1.96 | 3.38 | 2.07 | 3.17 | 4.27
AUUACCCUGGUCAUCGGGAGA [Fam2.1 aminoacylation ribozyme variant] | 2.87 | 1.71 | 2.97 | 2.41 | 4.4 | 5.01
AAGCUUGCUAAUAGUCGCAAG [Fam3.1 aminoacylation ribozyme variant] | 3.96 | 1.85 | 1.69 | 1.59 | 1.67 | 2.02
AUUACCCUGGCCAUAGAGUGA [Fam2.1 aminoacylation ribozyme variant] | 5.34 | 2.6 | 4.15 | 2.51 | 4.73 | 6.32
GUUACCCUUGUCAUCGAGUGA [Fam2.1 aminoacylation ribozyme variant] | 48.1 | 4.41 | 8.39 | 4.44 | 8.14 | 10.7

Sequence | self-aminoacylation [1] | self-aminoacylation [2] | self-aminoacylation [3] | self-aminoacylation [4] | self-aminoacylation [5] | self-aminoacylation [6]
AAGUUUCCUAAUACUCGCAAG [Fam3.1 aminoacylation ribozyme variant] | 0.584 | 0.862 | 1 | 0.889 | 0.891 | 0.555
AUUAACCUGGUCAUCGAGGGA [Fam2.1 aminoacylation ribozyme variant] | 0.771 | 1.53 | 1.76 | 1.3 | 1.28 | 1.99
AUUCACGAAGGUCAUCGGGUG [Fam2.2 aminoacylation ribozyme variant] | 89.6 | 5.12 | 10.5 | 6.74 | 11.3 | 8.81
CUACUACAAACAAUCCGUCUG [Fam1A.1 aminoacylation ribozyme variant] | 0.545 | 0.717 | 0.728 | 0.832 | 0.68 | 0.855
CCACACUUUAAGCAAUCGGAC [Fam1B.1 aminoacylation ribozyme variant] | 0.866 | 0.85 | 0.664 | 0.839 | 0.737 | 0.544
CUACGUCAAACAAUGGGUCUG [Fam1A.1 aminoacylation ribozyme variant] | 2.25 | 1.38 | 1.22 | 1.35 | 1.62 | 1.18
CUACUCCAAAGAAUCGGUCUG [Fam1A.1 aminoacylation ribozyme variant] | 0.807 | 0.927 | 0.731 | 0.764 | 1.03 | 0.807
CUACAUCAAACAAUCCGUCUG [Fam1A.1 aminoacylation ribozyme variant] | 0.983 | 0.905 | 0.759 | 0.877 | 0.755 | 0.615
CUGCUUCAAACAAUCGGUCUU [Fam1A.1 aminoacylation ribozyme variant] | 107 | 1.84 | 1.91 | 1.72 | 2.97 | 52
CCACACUUCAAUCCAUCGGUC [Fam1B.1 aminoacylation ribozyme variant] | 0.794 | 0.801 | 0.824 | 0.91 | 0.676 | 0.553
CCACACUUCAAGCAAUUGGAC [Fam1B.1 aminoacylation ribozyme variant] | 0.614 | 0.72 | 0.664 | 0.697 | 0.583 | 0.337
CUACUCCAUACAAUCGGUCUG [Fam1A.1 aminoacylation ribozyme variant] | 0.859 | 0.833 | 0.719 | 0.751 | 0.628 | 0.549
CUACUUCAAACUAUCGCUCUG [Fam1A.1 aminoacylation ribozyme variant] | 0.781 | 0.732 | 0.609 | 0.786 | 0.678 | 0.664
CCACCGUUCAAGCAAUCGGUC [Fam1B.1 aminoacylation ribozyme variant] | 1.27 | 1 | 0.827 | 1.41 | 0.983 | 1.11
AUUACCCUGGGCAUCGGGUGA [Fam2.1 aminoacylation ribozyme variant] | 65.7 | 5.62 | 10.4 | 6.68 | 11.5 | 10.8
CUAUUUAAAACAAUCGGUCUG [Fam1A.1 aminoacylation ribozyme variant] | 0.598 | 0.834 | 0.927 | 0.841 | 0.774 | 0.616
CUAUUUCAUACAAUCGGUCUG [Fam1A.1 aminoacylation ribozyme variant] | 0.812 | 0.911 | 0.837 | 0.801 | 0.804 | 0.625
CUACUUCAAACGAGCGGUCUG [Fam1A.1 aminoacylation ribozyme variant] | 0.761 | 0.8 | 0.943 | 1.02 | 0.689 | 0.477
AUUCACCUAGGUCACCGAGUG [Fam2.2 aminoacylation ribozyme variant] | 14.4 | 2.11 | 3.57 | 1.99 | 4.03 | 3.47
CUACCUCAAACAAUCGUUCUG [Fam1A.1 aminoacylation ribozyme variant] | 0.62 | 0.711 | 0.525 | 0.672 | 0.588 | 0.863
AUUCACCAAGGUGAUCGGGUG [Fam2.2 aminoacylation ribozyme variant] | 17.6 | 2.63 | 3.28 | 2.98 | 4.13 | 4.15
AUUCCCCUAGGUCAUCGCGUG [Fam2.2 aminoacylation ribozyme variant] | 826 | 64.1 | 102 | 77.6 | 141 | 99.5
AUUAUCCUGGUCAUCUAGUGA [Fam2.1 aminoacylation ribozyme variant] | 77.8 | 4.87 | 10.6 | 4.98 | 10.8 | 13.2
AUUACCCUGCUCAUCGAGUGU [Fam2.1 aminoacylation ribozyme variant] | 1.08 | 0.991 | 1 | 0.78 | 0.916 | 1.36
AAGAUUGCUAAUAGUCGAAAG [Fam3.1 aminoacylation ribozyme variant] | 2.96 | 1.28 | 1.03 | 0.945 | 0.966 | 1.34
